This is an account of results in US20180155399A1.

First the molecules themselves.
T1: murine TFPI 1-160 (mouse), O54819
T1 chain: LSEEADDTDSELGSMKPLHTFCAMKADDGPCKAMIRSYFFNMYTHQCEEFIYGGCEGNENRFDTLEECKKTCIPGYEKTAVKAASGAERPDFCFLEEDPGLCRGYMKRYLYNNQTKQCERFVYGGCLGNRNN

The target of one assay is T1, murine TFPI 1-160 (mouse), O54819. The experiment in a line: cell-based or functional assay.
Settings: not given
Regarding SYYKWHCAMRDMKGTMTCVWVKF (modifications not checked) [JBT1837], the FXa inhibition assay was over 10 µM.

For a further assay, the target named is T2, human Tissue Factor Pathway Inhibitor-1α (TFPI-1α) (human), P10646. As to the kind of experiment: competition. The following applies: modification not given.
T2 sequence (P10646 29-304): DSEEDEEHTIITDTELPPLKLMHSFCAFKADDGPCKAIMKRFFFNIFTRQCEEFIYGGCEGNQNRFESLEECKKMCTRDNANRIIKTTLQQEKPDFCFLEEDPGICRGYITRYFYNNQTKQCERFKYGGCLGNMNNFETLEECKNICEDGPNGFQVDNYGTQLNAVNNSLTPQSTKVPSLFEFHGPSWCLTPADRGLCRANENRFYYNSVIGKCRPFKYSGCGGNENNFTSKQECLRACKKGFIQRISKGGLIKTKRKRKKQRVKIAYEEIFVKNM
FQSKKNVFDFGYFERLRAKL [JBT0592] had an IC50 of over 5000 nM.

FQSKKNVFVFGYFERLFAKL [JBT0581]: the IC50 is over 5000 nM.

FQSKKNVFVFGYFEFLRAKL [JBT0579]: the half-maximal inhibitory concentration (IC50) was over 5000 nM.

The molecule FQSKKNVFVFGYFERLRAFL [JBT0583] displayed a concentration for half-maximal inhibition (IC50) of over 5000 nM.

On to FQSKKNVFVFGYFERLRFKL [JBT0582], for which the IC50 is over 5000 nM.

In turn, FQSKGNVFVFGYFDRLRAKL [JBT0528] displayed an IC50 of 107 nM.

For FQSVGNVFVDGYFERLSAKL [JBT1278], the IC50 stood at 73 nM. The IC50 values of the last two molecules are within 1.5-fold of each other.

Molecule FQSKGNVFVAGYFARLRAKL [JBT0806] had a 50% inhibitory concentration (IC50) of 42 nM.

Molecule FQSKFNVFVFGYFERLRAKL [JBT0573] came in with an IC50 of 1370 nM. This IC50 is about 33-fold higher than that of the molecule before.

Take FQSKKNVFVFGFFERLRAKL [JBT0577]: the IC50 is over 5000 nM.

Molecule FQSKKLVFVFGYFERLRAKL [JBT0606] had an IC50 of over 5000 nM.

FQSKLNVFVFGYFERLRAKL [JBT0605] returned a half-inhibitory concentration (IC50) of over 1670 nM.

Regarding FQSKKNVFVFGDFERLRAKL [JBT0594], the IC50 is over 5000 nM.

Turning to FESKGNVFVFGYFERLRAKL [JBT0516], the IC50 is 1190 nM.

Molecule FQLKKNVFVFGYFERLRAKL [JBT0603] registered a 50% inhibitory concentration (IC50) of over 5000 nM.

In the case of LKARLREFYGFVFVNKKSQF [JBT0783], the IC50 was over 1670 nM.

Molecule FQSKKNDFVFGYFERLRAKL [JBT0590] registered an IC50 of over 5000 nM.

In turn, FQSDKNVFVFGYFERLRAKL [JBT0588] registered an IC50 of over 5000 nM.

Regarding FQSKKNVFVFGYFERLDAKL [JBT0598], the IC50 is over 5000 nM.

As for FQSKKNVFVFFYFERLRAKL [JBT0576], the IC50 is over 1670 nM.

FQSKNNVFVHGYFERLRAKL [JBT0487] returned an IC50 of 40 nM.

In turn, FQSKGNVFVTGYFARLRAKL [JBT0720] came in with an IC50 of 27 nM. This IC50 and that of the molecule before are within 1.5-fold of each other.

The molecule AQSKGNVFVFGYFERLRAKL [JBT0497] displayed an IC50 of 100 nM. Compared with the last molecule, the IC50 is about 3.7-fold higher.

In turn, FQSKKNVFVFGYFERDRAKL [JBT0597] came in with an IC50 of over 5000 nM.

Regarding FQSFKNVFVFGYFERLRAKL [JBT0572], the IC50 is over 5000 nM.

The molecule FQSKKNVDVFGYFERLRAKL [JBT0591] gave an IC50 of over 5000 nM.

FQSKKFVFVFGYFERLRAKL [JBT0574] yielded an IC50 of over 5000 nM.

In the case of FQFKKNVFVFGYFERLRAKL [JBT0571], the IC50 was over 5000 nM.

As for FQSKGNVFVFAYFERLRAKL [JBT0525], the IC50 is over 5000 nM.

Molecule FQSKGDVFVFGYFERLRAKL [JBT0520] registered an IC50 of 188 nM. This lies in the sub-micromolar range.

In the case of FQSLKNVFVFGYFERLRAKL [JBT0604], the IC50 is over 1670 nM.

As for FQSKKNVFVFGYFERFRAKL [JBT0580], the half-inhibitory concentration (IC50) was over 5000 nM.

With FFSKKNVFVFGYFERLRAKL [JBT0570], the IC50 was over 5000 nM.

In turn, FLSKKNVFVFGYFERLRAKL [JBT0602] gave an IC50 of over 5000 nM.

Take FDSKKNVFVFGYFERLRAKL [JBT0586]: the IC50 was over 1670 nM.

The target of another assay is T2, human Tissue Factor Pathway ….
Assay: not given
The following applies: modification not given.
On to FQSKGNVFVTGYFARLRAKL [JBT0720], for which the EC50 is 220 nM. In other words, the sub-micromolar range.

By IC50 is commonly meant the concentration that gives 50% inhibition. A low value points to greater potency in that assay. In general, EC50 refers to the midpoint of the concentration-response curve. Lower therefore signals greater potency.
